According to US11994512B2, “Single-cell genomic methods to generate ex vivo cell systems that recapitulate in vivo biology with improved fidelity” (Massachusetts Institute of Technology, priority 2018, dated 2024):

B1: O88310 (protein, UniProt O88310 1-313, looked up)
chain: MTQLGFLLFIMVATRGCSAAEENLDTNRWGNSFFSSLPRSCKEIKQEHTKAQDGLYFLRTKNGVIYQTFCDMTTAGGGWTLVASVHENNMRGKCTVGDRWSSQQGNRADYPEGDGNWANYNTFGSAEAATSDDYKNPGYFDIQAENLGIWHVPNKSPLHNWRKSSLLRYRTFTGFLQHLGHNLFGLYKKYPVKYGEGKCWTDNGPALPVVYDFGDARKTASYYSPSGQREFTAGYVQFRVFNNERAASALCAGVRVTGCNTEHHCIGGGGFFPEGNPVQCGDFASFDWDGYGTHNGYSSSRKITEAAVLLFYR
modifications: full-length
B2: O35945 (protein, UniProt O35945 1-501, looked up)
chain: MSSPAQPAVPAPLANLKIQHTKIFINNEWHDSVSSKKFPVLNPATEEVICHVEEGDKADVDKAVKAARQAFQIGSPWRTMDASERGRLLNKLADLMERDRLLLATMESMNAGKVFAHAYLLDVEISIKALQYFAGWADKIHGQTIPSDGNIFTYTRREPIGVCGQIIPWNGPLIIFTWKLGPALSCGNTVVVKPAEQTPLTALHMASLIKEAGFPPGVVNIVPGYGPTAGGAISSHMDIDKVSFTGSTEVGKLIKEAAGKSNLKRVTLELGGKSPCIVFADADLDSAVEFAHQGVFFHQGQICVAASRLFVEESIYDEFVRRSVERAKKYILGNPLNSGINQGPQIDKEQHNKILGLIESGKKEGAKLECGGGRWGNKGFFVQPTVFSNVTDEMRIAKEEIFGPVQQIMKFKSMDDVIKRANNTTYGLAAGVFTKDLDKAITVSSALQAGMVWVNCYLAVPVQCPFGGFKMSGNGRELGEHGLYEYTELKTVAMQISQKNS
modifications: full-length
B3: O35594 (protein, UniProt O35594 1-676, looked up)
chain: MSDQIKFIVDSLNKEPFKKNYNLITFDSLGPMQLLQVLNDVLAEIDPKQDVDIREEMPEQTAKRMLNLLGILKYKPPGNATDMSTFRQGLVIGSKPVIYPVLHWLLQRSNELKKRAYLARFLIKLEVPSEFLQDETVADTNKQYEELMEAFKTLHKECEQLKTSGFSTAEIRRDISAMEEEKDQLMKRVERLKKRVETVQNHQRMLKIARQLRVEKEREEFLAQQKQEQKNQLFHAVQRLQRVQNQLKSMRHAAADAKPESLMKRLEEEIKFNSYMVTEKFPKELESKKKELHFLQKVVSEPAMGHSDLLELETKVNEVNTEINQLIEKKMMRNEPIEGKLSLYRQQASIISRKKEAKAEELQETKEKLASLEREVLVKTNQTREFDGTEVLKGDEFKRYVSKLRSKSTVFKKKHQIIAEFKAEFGLLQRTEELLKQRQETIQHQLRTIEEKKGISGYSYTQEELERVSALKSEVDEMKGRTLDDMSEMVKKLNSLVSEKKSALAPVIKELRQLRQKCQELTQECDEKKAQYDSCAAGLESNRSKLEQEVRGLREECLQEESKYHYTNCMIKNLEVELRRATDEMKAYVSSDQQEKRKAIREQYTKNITEQENLGKKLREKQKAVRESHGPNMKQAKMWRDLEQLMECKKQCFLKQQSPASIGQVIQEGGEDRLVL
modifications: full-length
B4: O70126 (protein, UniProt O70126 1-345, looked up)
chain: MAQKENAYPWPYGSKTSQSGLNTLSQRVLRKEPATTSALALVNRFNSQSTAAPGQKLAENKSQGSTASQGSQNKQPFTIDNFEIGRPLGKGKFGNVYLAREKKSRFIVALKILFKSQIEKEGVEHQLRREIEIQAHLKHPNILQLYNYFYDQQRIYLILEYAPRGELYKELQKSRTFDEQRTATIMEELSDALTYCHKKKVIHRDIKPENLLLGLQGELKIADFGWSVHAPSLRRKTMCGTLDYLPPEMIEGRMHNEMVDLWCIGVLCYELMVGNPPFESPSHSETYRRIVKVDLKFPSSVPSGAQDLISKLLKHNPWQRLPLAEVAAHPWVRANSRRVLPPSAL
modifications: full-length
B5: O88451 (protein, UniProt O88451 1-316, looked up)
chain: MWLYLVALVGLWTLLRFFRERQVVSHLQDKYVFITGCDSGFGNLLARQLDRRGMRVLAACLTEKGAEQLRNKTSDRLETVILDVTKTESIVAATQWVKERVGNRGLWGLVNNAGICVFAINEWLKKEDFANILDVNLLGMIEVTLSMLPLVRKARGRVVNISSSMGRVSLCGGGYCISKYGVEAFSDSLRREISYFGVKVAIIEPGGFRTNVSNYERLSHSIEKLWDQTSSEVKEVYDKNFLDSYIKAIQSLTDTCSDDLSVVTDCMEHALTACHPRTRYSAGWDAKLFYLPLSYMPTFLVDAMLYWSSVKPAQAL
modifications: full-length
B6: O88513 (protein, UniProt O88513 1-206, looked up)
chain: MNLSMKQKQEGAQENVKNSPVPRRTLKMIQPSADGSLVGRENELPKGLFKRKLWDDQLASQTSSCGPEANENKDVGDLTQEAFDLISKENPSSQYWKEVAEQRRKALYEALKENEKLHKEIEQKDSEIARLRKENKDLAEVAEHVQYMAEVIERLSNEPLDNFESPDSQEFDSEEEAVEYSELEDSGAGTCAEETVSSSTDARPCT
modifications: full-length
B7: O35943 (protein, UniProt O35943 1-207, looked up)
chain: MWAFGGRAAVGLLPRTASRASAWVGNPRWREPIVTCGRRGLHVTVNAGATRHAHLNLHYLQILNIKKQSVCVVHLRNLGTLDNPSSLDETAYERLAEETLDSLAEFFEDLADKPYTLEDYDVSFGDGVLTIKLGGDLGTYVINKQTPNKQIWLSSPSSGPKRYDWTGKNWVYSHDGVSLHELLARELTKALNTKLDLSSLAYSGKGT
modifications: full-length

Test system: intracellular proteome of ENR+CD and ENR organoids
Assay: LC-MS/MS TMT proteomics of ENR+CD versus ENR organoids
Format: cell-based, C57BL/6 mice
Settings: for Average logFC / M1-1 Log2 Median Normalized / M1-2 Log2 Median Normalized / M2-1 Log2 Median Normalized / M2-2 Log2 Median Normalized: protein abundance, ENR+CD versus ENR organoids; for Average logFC: aggregate of the four sample pairs; for M1-1 Log2 Median Normalized: replicate M1-1; for M1-1 Log2 Median Normalized / M1-2 Log2 Median Normalized / M2-1 Log2 Median Normalized / M2-2 Log2 Median Normalized: log2 ratio; for M1-2 Log2 Median Normalized: replicate M1-2; for M2-1 Log2 Median Normalized: replicate M2-1; for M2-2 Log2 Median Normalized: replicate M2-2; for change: up = enriched in ENR+CD, down = enriched in ENR, FDR<0.05 and log fold change cut-off
Source text: Because PCs are highly secretory, protein-rich cells, Applicants sought to assess the total intracellular proteome between conditions through liquid chromatography mass spectrometry (LC-MS/MS)-based proteomics. Applicants quantified relative protein abundance across eight samples using isobaric mass tag labeling from four ENR and four ENR+CD samples (M1-1 through M2-2, first digit denotes biological donor, second digit denotes technical replicate) (FIG. 3A). Samples were processed and analyzed in a single 10-plex by LC-MS/MS (FIG. 9A).
To affirm the reproducibility of the associated proteins in the ENR+CD-enriched proteome, Applicants performed relative quantification within differentiation sets.
Mass spectrometry proteomics sample preparation, sequencing, and quantification. Organoid cell pellets were isolated from Matrigel with mechanical dissociation and washed (cold PBS 5X) to remove residual extracellular protein. Proteins were extracted from cell pellets with 8 M urea (Sigma), reduced with 5 mM DTT (Thermo Fisher Pierce) for 45 minutes, alkylated with 10 mM IAA (Sigma) for 45 minutes in the dark, and double digested with both Lysyl Endopeptidase “LysC” (Wako) and trypsin (Promega) overnight at RT. A small aliquot of cellular lysate was removed from each sample for protein quantification via the Pierce™ BCA Protein Assay Kit (Pierce). After proteolytic digestion, the samples were quenched using formic acid to a final concentration of 1.0% and subsequently desalted on 10 mg OASIS HLB solid phase columns (Waters).
The peptides were labeled with TMT-10 isobaric mass tag reagent according to manufacturer's instructions (ThermoFisher Scientific). The peptides were labeled at a 1:8 ratio of peptide to TMT reagent, followed by 1-hour incubation at RT with bench top shaking at 850 rpm. After incubation, a […] of labeled tryptic peptide was removed from each labeled condition, desalted with C18 stage tips, and analyzed via LC-MS/MS using a Thermo Fisher Q Exactive Plus Hybrid Mass Spectrometer (QE-Plus) coupled to a Thermo Fisher EASY-nLC 1000 liquid chromatograph to ensure isobaric label incorporation >95%. An additional 1.0 μg of labeled tryptic peptide was removed from each channel, mixed together, desalted on a C18 stage tip, and analyzed via LC-MS to ensure equal relative protein loads. During these quality control steps, the labeled peptides were stored, unquenched at −80° C.

| Molecule | Average logFC | M1-1 Log2 Median Normalized | M1-2 Log2 Median Normalized | M2-1 Log2 Median Normalized | M2-2 Log2 Median Normalized | change |
| --- | --- | --- | --- | --- | --- | --- |
| B1 | 1.203 | 1.445 | 1.239 | 0.9545 | 1.175 | up |
| B2 | −1.329 | −1.241 | −1.721 | −1.8345 | −0.518 | down |
| B3 | 1.151 | 0.817 | 1.152 | 1.1275 | 1.543 | up |
| B4 | −1.165 | −1.572 | −0.967 | −0.8395 | −1.281 | down |
| B5 | −1.416 | −1.202 | −1.565 | −2.2355 | −0.662 | down |
| B6 | −1.337 | −1.6 | −1.306 | −0.8435 | −1.599 | down |
| B7 | −1.193 | −0.813 | −0.849 | −1.3945 | −1.715 | down |
